US20100144645A1, “COMPOSITIONS AND METHODS FOR ENHANCING […] POTENCY OF […]-COMPOUNDS, A[…] ADVERSE SIDE EFFECTS, AND […] ABUSE” (SHIRE LLC, priority 2006, published 2010)
Structures can show the parent of a compound that is named as a salt. Residues, ends and D or L forms follow the SMILES beside them. *: point of attachment. X4 = CC(=O)Oc1ccc2c3c1OC1C(O*)=CCC4[C@@H](C2)N(C)CC[C@]314; X2 = CN1CC[C@]23c4c5ccc(O)c4O[C@H]2C(O*)=CC[C@H]3[C@H]1C5; X1 = COc1ccc2c3c1OC1C(O*)=CCC4[C@@H](C2)N(C)CC[C@]314; X3 = CN1CC[C@]23c4c5ccc(O)c4OC2C(O*)=CCC3[C@H]1C5

Columns and labels:
[1] = Oral bioavailability of hydromorphone conjugates; settings: rats; for Oral AUC %: corrected value calculated based on the bioavailability of the control (HM); for Oral Cmax %: corrected value calculated based on the control (HM)
[2] = Intranasal bioavailability of hydromorphone conjugates; settings: rats; for IN AUC %: corrected value calculated based on the bioavailability of the control (HM); for IN Cmax %: corrected value calculated based on the control (HM)
[3] = stability 90 C., 20 min (V, BP, TW, BS) of hydrocodone conjugates; settings: for stability 90 C., 20 min BP: BP (abbreviation not defined); for stability 90 C., 20 min BS: BS (abbreviation not defined); for stability 90 C., 20 min TW: TW (abbreviation not defined); for stability 90 C., 20 min V: V (abbreviation not defined)
[4] = Intranasal bioavailability of hydrocodone conjugates; settings: rats, relative to hydrocodone
[5] = Oral bioavailability of hydrocodone conjugates (plasma hydrocodone plus hydromorphone); settings: for bioavailabiltty (% HC) oral AUC / bioavailabiltty (% HC) oral Cmax: rats, relative to hydrocodone

| Molecule | Oral AUC % [1] | Oral Cmax % [1] | IN AUC % [2] | IN Cmax % [2] | also measured |
| --- | --- | --- | --- | --- | --- |
| CN1CC[C@]23c4c5ccc(O)c4O[C@H]2C(OC(=O)[C@H](Cc2ccccc2)NC(=O)[C@H](Cc2ccccc2)NC(=O)[C@H](Cc2ccccc2)NC(=O)[C@H](CCC(=O)O)NC(=O)[C@@H](N)CCC(=O)O)=CC[C@H]3[C@H]1C5 [EEFFF-HM, Glu2-Phe3-Hydromorphone.Dihydrochloride] (H-EEFFF-X2) | 79% | 78% | 52% | 57% | – |
| CC[C@H](C)[C@H](NC(=O)[C@H](CCC(=O)O)NC(=O)[C@@H](N)CCC(=O)O)C(=O)OC1=CC[C@H]2[C@H]3Cc4ccc(O)c5c4[C@@]2(CCN3C)[C@H]1O5 [EEI-HM] | 56% | 73% | 59% | 88% | – |
| CC(C)C[C@H](NC(=O)[C@H](CCC(=O)O)NC(=O)[C@@H](N)CCC(=O)O)C(=O)OC1=CC[C@H]2[C@H]3Cc4ccc(O)c5c4[C@@]2(CCN3C)[C@H]1O5 [EEL-HM] | 27% | 49% | 84% | 98% | – |
| CC(C)[C@H](NC(=O)[C@H](CCC(=O)O)NC(=O)[C@@H](N)CCC(=O)O)C(=O)OC1=CC[C@H]2[C@H]3Cc4ccc(O)c5c4[C@@]2(CCN3C)[C@H]1O5 [EEV-HM] | 21% | 50% | 31% | 70% | – |
| CC[C@H](C)[C@H](NC(=O)[C@H](Cc1ccccc1)NC(=O)[C@@H](N)Cc1ccccc1)C(=O)OC1=CC[C@H]2[C@H]3Cc4ccc(O)c5c4[C@@]2(CCN3C)[C@H]1O5 [FFI-HM] | 18% | 47% | 79% | 92% | – |
| CC(C)C[C@H](NC(=O)[C@H](Cc1ccccc1)NC(=O)[C@@H](N)Cc1ccccc1)C(=O)OC1=CC[C@H]2[C@H]3Cc4ccc(O)c5c4[C@@]2(CCN3C)[C@H]1O5 [FFL-HM] | 11% | 24% | 92% | 96% | – |
| CC(C)[C@H](NC(=O)[C@H](Cc1ccccc1)NC(=O)[C@@H](N)Cc1ccccc1)C(=O)OC1=CC[C@H]2[C@H]3Cc4ccc(O)c5c4[C@@]2(CCN3C)[C@H]1O5 [FFV-HM] | 8% | 36% | 98% | 103% | – |
| CC[C@H](C)[C@H](NC(=O)CNC(=O)CN)C(=O)OC1=CCC2[C@H]3Cc4ccc(O)c5c4[C@@]2(CCN3C)C1O5 (stereo partly shown) [GGI-HM] | 17% | 32% | 24% | 66% | – |
| CC(C)C[C@H](NC(=O)CNC(=O)CN)C(=O)OC1=CCC2[C@H]3Cc4ccc(O)c5c4[C@@]2(CCN3C)C1O5 (stereo partly shown) [GGL-HM] | 22% | 43% | 52% | 85% | – |
| CC(C)[C@H](NC(=O)CNC(=O)CN)C(=O)OC1=CCC2[C@H]3Cc4ccc(O)c5c4[C@@]2(CCN3C)C1O5 (stereo partly shown) [GGV-HM] | 53% | 63% | 51% | 73% | – |
| CC[C@H](C)[C@H](NC(=O)[C@H](CC(=O)O)NC(=O)[C@H](CC(=O)O)NC(=O)[C@H](CCC(=O)O)NC(=O)[C@@H](N)CCC(=O)O)C(=O)OC1=CCC2[C@H]3Cc4ccc(OC)c5c4[C@@]2(CCN3C)C1O5 (stereo partly shown) [Glu2-Asp2-Ile-HC] (H-EEDDI-X1) | – | – | – | – | stability 90 C., 20 min BP [3]: 77; stability 90 C., 20 min BS [3]: 100; stability 90 C., 20 min TW [3]: 15; stability 90 C., 20 min V [3]: 1; bioavailabiltty (% HC) IN AUC [4]: 53 % HC; bioavailabiltty (% HC) IN Cmax [4]: 81 % HC; bioavailabiltty (% HC) oral AUC [5]: 108 % HC; bioavailabiltty (% HC) oral Cmax [5]: 129 % HC; Oral:IN Index AUC ([5]; ratio of oral to IN AUC (% HC)): 2.04; Oral:IN Index Cmax ([5]; ratio of oral to IN Cmax (% HC)): 1.59 |
| CC[C@H](C)[C@H](NC(=O)CNC(=O)CNC(=O)[C@H](CCC(=O)O)NC(=O)[C@@H](N)CCC(=O)O)C(=O)OC1=CCC2[C@H]3Cc4ccc(OC)c5c4[C@@]2(CCN3C)C1O5 (stereo partly shown) [Glu2-Gly2-Ile-HC, Glu2-Gly2-Ile-Hydrocodone] (H-EEGGI-X1) | – | – | – | – | stability 90 C., 20 min BP [3]: 99; stability 90 C., 20 min BS [3]: 99; stability 90 C., 20 min TW [3]: 23; stability 90 C., 20 min V [3]: 0; bioavailabiltty (% HC) IN AUC [4]: 50 % HC; bioavailabiltty (% HC) IN Cmax [4]: 56 % HC; bioavailabiltty (% HC) oral AUC [5]: 81 % HC; bioavailabiltty (% HC) oral Cmax [5]: 77 % HC |
| CC[C@H](C)[C@H](NC(=O)CNC(=O)CN)C(=O)OC1=CCC2[C@H]3Cc4ccc(OC)c5c4[C@@]2(CCN3C)C1O5 (stereo partly drawn) [Gly-Gly-Ile-HC] | – | – | – | – | stability 90 C., 20 min BP [3]: 100; stability 90 C., 20 min BS [3]: 100; stability 90 C., 20 min TW [3]: 93; stability 90 C., 20 min V [3]: 0 |
| CC[C@H](C)[C@H](NC(=O)[C@H](CCCCN)NC(=O)[C@@H](N)CCCCN)C(=O)OC1=CCC2[C@H]3Cc4ccc(O)c5c4[C@@]2(CCN3C)C1O5 (stereo partly shown) [KKI-HM] | 24% | 56% | 68% | 85% | – |
| CC(C)C[C@H](NC(=O)[C@H](CCCCN)NC(=O)[C@@H](N)CCCCN)C(=O)OC1=CCC2[C@H]3Cc4ccc(O)c5c4[C@@]2(CCN3C)C1O5 (stereo partly shown) [KKL-HM] | 24% | 50% | 87% | 96% | – |
| CC(C)[C@H](NC(=O)[C@H](CCCCN)NC(=O)[C@@H](N)CCCCN)C(=O)OC1=CCC2[C@H]3Cc4ccc(O)c5c4[C@@]2(CCN3C)C1O5 (stereo partly shown) [KKV-HM] | 43% | 60% | 75% | 89% | – |
| CC[C@H](C)[C@H](NC(=O)[C@@H]1CCCN1C(=O)[C@@H]1CCCN1)C(=O)OC1=CCC2[C@H]3Cc4ccc(O)c5c4[C@@]2(CCN3C)C1O5 (stereo partly shown) [PPI-HM] | 21% | 60% | 77% | 95% | – |
| CC(C)C[C@H](NC(=O)[C@@H]1CCCN1C(=O)[C@@H]1CCCN1)C(=O)OC1=CCC2[C@H]3Cc4ccc(O)c5c4[C@@]2(CCN3C)C1O5 (stereo partly shown) [PPL-HM] | 22% | 45% | 53% | 70% | – |
| CC(C)[C@H](NC(=O)[C@@H]1CCCN1C(=O)[C@@H]1CCCN1)C(=O)OC1=CCC2[C@H]3Cc4ccc(O)c5c4[C@@]2(CCN3C)C1O5 (stereo partly shown) [PPV-HM] | 24% | 55% | 71% | 101% | – |
| CC[C@H](C)[C@H](NC(=O)[C@@H]1CCCN1C(=O)[C@@H]1CCCN1)C(=O)OC1=CCC2[C@H]3Cc4ccc(OC)c5c4[C@@]2(CCN3C)C1O5 (stereo partly drawn) [Pro-Pro-Ile-HC] | – | – | – | – | stability 90 C., 20 min BP [3]: 16; stability 90 C., 20 min BS [3]: 100; stability 90 C., 20 min TW [3]: 70; stability 90 C., 20 min V [3]: 0 |
| CC[C@H](C)[C@H](NC(=O)[C@@H]1CCCN1C(=O)[C@@H]1CCCN1C(=O)[C@H](Cc1ccc(O)cc1)NC(=O)[C@@H](N)Cc1ccc(O)cc1)C(=O)OC1=CCC2[C@H]3Cc4ccc(OC)c5c4[C@@]2(CCN3C)C1O5 (stereo partly shown) [Tyr2-Pro2-Ile-HC] (H-YYPPI-X1) | – | – | – | – | stability 90 C., 20 min BP [3]: 100; stability 90 C., 20 min BS [3]: 100; stability 90 C., 20 min TW [3]: 83; stability 90 C., 20 min V [3]: 0; bioavailabiltty (% HC) oral AUC [5]: 218 % HC; bioavailabiltty (% HC) oral Cmax [5]: 213 % HC |
| CC[C@H](C)[C@H](NC(=O)[C@H](Cc1ccccc1)NC(=O)[C@H](Cc1ccccc1)NC(=O)[C@H](Cc1ccc(O)cc1)NC(=O)[C@@H](N)Cc1ccc(O)cc1)C(=O)OC1=CCC2[C@H]3Cc4ccc(OC(C)=O)c5c4[C@@]2(CCN3C)C1O5 (stereo partly shown) [YYFFI-HM-OAc] (H-YYFFI-X4) | 29% | 40% | 59% | 72% | – |
| CC[C@H](C)[C@H](NC(=O)[C@H](Cc1ccccc1)NC(=O)[C@H](Cc1ccccc1)NC(=O)[C@H](Cc1ccc(O)cc1)NC(=O)[C@@H](N)Cc1ccc(O)cc1)C(=O)OC1=CCC2[C@H]3Cc4ccc(O)c5c4[C@@]2(CCN3C)C1O5 (stereo partly shown) [YYFFI-HM] (H-YYFFI-X3) | 40% | 52% | 4% | 7% | – |
| CC[C@H](C)[C@H](NC(=O)[C@H](Cc1ccc(O)cc1)NC(=O)[C@@H](N)Cc1ccc(O)cc1)C(=O)OC1=CCC2[C@H]3Cc4ccc(O)c5c4[C@@]2(CCN3C)C1O5 (stereo partly shown) [YYI-HM] | 32% | 66% | 88% | 86% | – |
| CC(C)C[C@H](NC(=O)[C@H](Cc1ccc(O)cc1)NC(=O)[C@@H](N)Cc1ccc(O)cc1)C(=O)OC1=CCC2[C@H]3Cc4ccc(O)c5c4[C@@]2(CCN3C)C1O5 (stereo partly shown) [YYL-HM] | 12% | 30% | 74% | 75% | – |
| CC(C)[C@H](NC(=O)[C@H](Cc1ccc(O)cc1)NC(=O)[C@@H](N)Cc1ccc(O)cc1)C(=O)OC1=CCC2[C@H]3Cc4ccc(O)c5c4[C@@]2(CCN3C)C1O5 (stereo partly shown) [YYV-HM] | 30% | 53% | 73% | 73% | – |
| (d)-Lys-(1)-Lys-Ile-Hydrocodone [(d)Lys(I)Lys-Ile-HC] | – | – | – | – | stability 90 C., 20 min BP [3]: 69; stability 90 C., 20 min BS [3]: 100; stability 90 C., 20 min TW [3]: 74; stability 90 C., 20 min V [3]: 0 |
| Gly-Gly-Leu-Hydrocodone [Gly-Gly-Leu-HC] | – | – | – | – | stability 90 C., 20 min BP [3]: 100; stability 90 C., 20 min BS [3]: 100; stability 90 C., 20 min TW [3]: 85; stability 90 C., 20 min V [3]: 1 |
